Laboratory results reported in publication PMC8582585, “An HLA-A*11:01-Binding Neoantigen from Mutated NPM1 as Target for TCR Gene Therapy in AML” (Cancers, 2021).
Peptide text beside a SMILES is read from it.

Key:
HLA-A*03:01 (HLA-A3) = molecular target: T1, HLA-A*03:01 (HLA-A3) (Homo sapiens, UniProt P04439); experiment: Competition-based peptide-HLA class I binding assay, HLA-A3
T1 construct: soluble HLA molecules mixed with a fluorescein-labeled peptide; made in house; host or cells: Escherichia coli

HLA-A*11:01 (HLA-A11) = molecular target: T2, HLA-A*11:01 (HLA-A11) (Homo sapiens, UniProt P04439, A114D/D185E/E176A/F33Y/L180Q/S129P/T187R); experiment: Competition-based peptide-HLA class I binding assay, HLA-A11
T2 construct: soluble HLA molecules mixed with a fluorescein-labeled peptide; made in house; host or cells: Escherichia coli

HLA-A*02:01 (HLA-A2) = HLA-A*02:01 (HLA-A2) (Homo sapiens, UniProt P04439, D140Y/D185E/D98H/E176V/E277Q/G131W/G231S/I119V/I121R/I166T/I218V/L300P/L318F/N151K/N90K/P208A/P217A/Q86G/Q94H/R138H/R169H/T345S); conditions: cited from earlier work
Source text: In this study, we investigated whether […] is also a neoantigen that can be targeted by TCR gene therapy. We isolated various T-cells for […] and cloned the TC ...

[1] = molecular target: soluble HLA-A*11:01 (heavy chain with β2M); experiment: competition-based peptide-HLA class I binding assay (gel-filtration HPLC with fluorescence detection); 25 pmol HLA heavy chain, 25 pmol β2M, 100 fmol KVFPC(Fl)ALINK and 10-fold serial dilutions of competitor peptide in 100 µL; 100 mM phosphate, 75 mM NaCl, 1 mM CHAPS, pH 7; 24 h at RT; IC50 = 50% reduction of the fluorescent pHLA-complex peak
[2] = molecular target: soluble HLA-A*03:01 (heavy chain with β2M); experiment: as above

## CC(C)C[C@H](NC(=O)[C@H](CO)NC(=O)[C@@H](NC(=O)[C@H](CCC(=O)O)NC(=O)[C@H](CCC(=O)O)NC(=O)[C@@H](NC(=O)[C@H](C)N)C(C)C)C(C)C)C(=O)N[C@@H](CCCNC(=N)N)C(=O)N[C@@H](CCCCN)C(=O)O (H-AVEEVSLRK-OH)
HLA-A*03:01 (HLA-A3)
  IC50: 1330 nM
HLA-A*11:01 (HLA-A11)
  IC50: 50.9 nM

## CLAVEEVSL
HLA-A*02:01 (HLA-A2)
  HLA-A2 binding: HLA-A*02:01 (HLA-A2)-binding

## AVEEVSLRK [dNPM1 … peptide]
[1]
  IC50: 50.9 nM
[2]
  IC50: 1330 nM
